Source: US20040087497

Assays:
Suc-Leu-Ala-Gly-Dox = target: T1, Suc-Leu-Ala-Gly-Dox
T1 chain: XAX

Suc-βAla-Leu-Ala-Leu-Dox = target: T2, Suc-βAla-Leu-Ala-Leu-Dox
T2 chain: XLAX

B1: human CD10 (protein)
chain: GKSESQMDITDINTPKPKKKQRWTPLEISLSVLVLLLTIIAVTMIALYATYDDGICKSSDCIKSAARLIQNMDATTEPCTDFFKYACGGWLKRNVIPETSSRYGNFDILRDELEVVLKDVLQEPKTEDIVAVQKAKALYRSCINESAIDSRGGEPLLKLLPDIYGWPVATENWEQKYGASWTAEKAIAQLNSKYGKKVLINLFVGTDDKNSVNHVIHIDQPRLGLPSRDYYECTGIYKEACTAYVDFMISVARLIRQEERLPIDENQLALEMNKVMELEKEIANATAKPEDRNDPMLLYNKMTLAQIQNNFSLEINGKPFSWLNFTNEIMSTVNISITNEEDVVVYAPEYLTKLKPILTKYSARDLQNLMSWRFIMDLVSSLSRTYKESRNAFRKALYGTTSETATWRRCANYVNGNMENAVGRLYVEAAFAGESKHVVEDLIAQIREVFIQTLDDLTWMDAETKKRAEEKALAIKERIGYPDDIVSNDNKLNNEYLELNYKEDEYFENIIQNLKFSQSKQLKKLREKVDKDEWISGAAVVNAFYSSGRNQIVFPAGILQPPFFSAQQSNSLNYGGIGMVIGHEITHGFDDNGRNFNKDGDLVDWWTQQSASNFKEQSQCMVYQYGNFSWDLAGGQHLNGINTLGENIADNGGLGQAYRAYQNYIKKNGEEKLLPGLDLNHKQLFFLNFAQVWCGTYRPEYAVNSIKTDVHSPGNFRIIGTLQNSAEFSEAFHCRKNSYMNPEKKCRVW
Suc-Leu-Ala-Gly-Dox
  Percent Conversion/Hour to Gly-Dox, CD10 transfected CHO Clone 8 (Percent Conversion/Hour): 0.61
  conversion rate to Gly-Dox, CD10 transfected CHO Clone 8: 0.06 mM/h
Suc-βAla-Leu-Ala-Leu-Dox
  Percent Conversion/Hour to Leu-Dox, CD10 transfected CHO Clone 8 (Percent Conversion/Hour): 3
  conversion rate to Leu-Dox, CD10 transfected CHO Clone 8: 0.3 mM/h
